Assay results published in US20260001891A1 (KEYMED BIOSCIENCES CHENGDU, published 2026).

target: EGFR (human (endogenous on human cancer cell …, UniProt P00533 25-1210)); assay: cell-based or functional assay

IC50 of in vitro proliferation inhibition, EGFR-positive MDA-MB-468 cells (CCK8, 6 days)	Binder
210 pM	ADC-126 (antibody, human IgG1, V domains shown, linker-drug LD-105 (maleimide) coupled to cysteine sulfhydryls after TCEP reduction; average drug loading y=4.96 per antibody; positions not given) VH: QVQLQQSGAEVKKPGSSVKVSCKASGYTFTNYYIYWVRQAPGQGLEWIGGINPTSGGSNFNEKFKTRVTITVDESTNTAYMELSSLRSEDTAFYFCARQGLWFDSDGRGFDFWGQGSTVTVSS VL: DIQMTQSPSSLSASVGDRVTITCRSSQNIVHSNGNTYLDWYQQTPGKAPKLLIYKVSNRFSGVPSRFSGSGSGTDFTFTISSLQPEDIATYYCFQYSHVPWTFGQGTKLQITR
200 pM	ADC-129 (antibody, human IgG1, V domains shown, linker-drug LD-99 coupled to cysteine sulfhydryls after TCEP reduction; average drug loading y=7.11 per antibody; positions not given) VH: QVQLQQSGAEVKKPGSSVKVSCKASGYTFTNYYIYWVRQAPGQGLEWIGGINPTSGGSNFNEKFKTRVTITVDESTNTAYMELSSLRSEDTAFYFCARQGLWFDSDGRGFDFWGQGSTVTVSS VL: DIQMTQSPSSLSASVGDRVTITCRSSQNIVHSNGNTYLDWYQQTPGKAPKLLIYKVSNRFSGVPSRFSGSGSGTDFTFTISSLQPEDIATYYCFQYSHVPWTFGQGTKLQITR
210 pM	ADC-128 (antibody, human IgG1, V domains shown, linker-drug LD-13 coupled to cysteine sulfhydryls after TCEP reduction; average drug loading y=7.62 per antibody; positions not given) VH: QVQLQQSGAEVKKPGSSVKVSCKASGYTFTNYYIYWVRQAPGQGLEWIGGINPTSGGSNFNEKFKTRVTITVDESTNTAYMELSSLRSEDTAFYFCARQGLWFDSDGRGFDFWGQGSTVTVSS VL: DIQMTQSPSSLSASVGDRVTITCRSSQNIVHSNGNTYLDWYQQTPGKAPKLLIYKVSNRFSGVPSRFSGSGSGTDFTFTISSLQPEDIATYYCFQYSHVPWTFGQGTKLQITR
